Measurements taken from publication PMC9354048.

Target: (opt)EsTKγ (Eptatretus stouti thread keratin γ, from a codon-optimised gene) (Eptatretus stouti)
Test: co-assembly by dialysis out of urea, gel separated by ultrafiltration centrifugation and analysed by SDS-PAGE; crudely purified proteins, each 1.0 mg/ml in 8 M urea, 0.02 M NaH2PO4, 0.5 M NaCl, mixed 1:1; gradient dialysis 8 M to 4 M to 2 M to 0 M urea in 2 mM Tris, 1 mM DTT, pH 9, 4°C, 72 h; concentrated in a 10 kDa ultrafiltration tube; gel-like product picked up, diluted and run on SDS-PAGE

stoichiometry N: 1
Substance: (opt)EsTKα (Eptatretus stouti thread keratin α, from a codon-optimised gene) (natural protein)
